Test results reported in patent publication US20050106100.

Key:
Ac-PLG-LYV-Ahxh-Ac[C14] = target: T1, Ac-PLG-LYV-Ahxh-Ac[C14]
T1 chain: PLGLYV

Ac-PLG˜LYQ-Ahxh-Ac[C14] = target: T2, Ac-PLG˜LYQ-Ahxh-Ac[C14] (not fully specified)
T2 chain: PLGLYQ

Ac-PLG˜LWA-Ahxh-Ac[C14] = target: T3, Ac-PLG˜LWA-Ahxh-Ac[C14] (not fully specified)
T3 chain: PLGLWA

[1] = target: T4, Ac-DAla-PRG˜Ile-LA-Ahxh-Hynic (not fully specified)
T4 chain: APRGILA

[2] = target: T5, Ac-P-Hcit-G˜Hphe-SA-Ahxh-Hynic (not fully specified)
T5 chain: PXGXSA

[3] = target: T6, Ac-Oic-LG˜LL-Ahxh-Ac[C14] (not fully specified)
T6 chain: XLGLL

Ac-PLG˜LRL-Ahxh-Hynic = target: T7, Ac-PLG˜LRL-Ahxh-Hynic (not fully specified)
T7 chain: PLGLRL

[4] = target: T8, Ac-P-Cit-Hse˜Hphe-SA-Ahxh-Hynic (not fully specified)
T8 chain: PXXXSA

[5] = target: T9, Ac-PL-NLys˜S(OBn)-LL-Ahxh-Ac[C14] (not fully specified)
T9 chain: PLXSLL

[6] = target: T10, Ac-PLG˜L-Cha-Ahxh-Ac[C14] (not fully specified)
T10 chain: PLGLX

[7] = target: T11, Ac-PLG˜Hphe-YL-Ambh-Hynic
T11 chain: PLGXYL

Ac-VRW˜LLA-Ahxh-Hynic = target: T12, Ac-VRW˜LLA-Ahxh-Hynic
T12 chain: VRWLLA

[8] = target: T13, Ac-PLG˜Hphe-YLA-Ahxh-Hynic
T13 chain: PLGXYLA

[9] = target: T14, Ac-NLys-PLG˜LL-Ahxh-Hynic (not fully specified)
T14 chain: XPLGLL

[10] = target: T15, Ac-POG˜Hphe-LTR-Ahxh-Ac[C14]
T15 chain: PXGXLTR

[11] = target: T16, Ac-P-Cit-Abu˜LTA-Ahxh-Hynic (not fully specified)
T16 chain: PXXLTA

[12] = target: T17, Ac-NGlu-PLG˜Hphe-YL-Ahxh-Ac[C14] (not fully specified)
T17 chain: XPLGXYL

Ac-PLG˜LYL-Ahxh-Hynic = target: T18, Ac-PLG˜LYL-Ahxh-Hynic (not fully specified)
T18 chain: PLGLYL

[13] = target: T19, Ac-PLG˜L-Pya-L-Ahxh-Ac[C14] (not fully specified)
T19 chain: PLGLXL

[14] = target: T20, Ac-PL-NLys˜LL-Ahxh-Ac[C14] (not fully specified)
T20 chain: PLXLL

Ac-PRR˜Cha-TA-Ambh-Hynic = target: T21, Ac-PRR˜Cha-TA-Ambh-Hynic
T21 chain: PRRXTA

[15] = target: T22, Hynic-fff-Ahx-PLG˜Hphe-OLEE-OH
T22 chain: FFFXPLGXXLEE

Ac-VRW˜LTA-Ahxh-Hynic = target: T23, Ac-VRW˜LTA-Ahxh-Hynic (not fully specified)
T23 chain: VRWLTA

Ac-PRG˜LLT-Ahxh-Hynic = target: T24, Ac-PRG˜LLT-Ahxh-Hynic
T24 chain: PRGLLT

[16] = target: T25, Ac-P-Cha-G˜Smc-HA-Ahxh-Hynic (not fully specified)
T25 chain: PXGXHA

Ac-PLG˜LL-Ahxh-Hynic = target: T26, Ac-PLG˜LL-Ahxh-Hynic
T26 chain: PLGLL

[17] = target: T27, Ac-PLG˜Cit-LA-Ahxh-Ac[C14] (not fully specified)
T27 chain: PLGXLA

[18] = target: T28, Ac-PLG˜Hphe-RLT-Ahxh-Hynic
T28 chain: PLGXRLT

[19] = target: T29, Ac-PLG˜Hphe-OLR-Ahxh-Hynic
T29 chain: PLGXXLR

[20] = target: T30, Ac-P-Cit-G˜S(OBn)-LA-Ahxh-Ac[C14] (not fully specified)
T30 chain: PXGSLA

Ac-PLG˜LYT-Ahxh-Ac[C14] = target: T31, Ac-PLG˜LYT-Ahxh-Ac[C14] (not fully specified)
T31 chain: PLGLYT

Ac-PHG˜Hphe-L-Ahxh-Hynic = target: T32, Ac-PHG˜Hphe-L-Ahxh-Hynic (not fully specified)
T32 chain: PHGXL

Ac-PLG˜LL-Ahxh-Ac[C14] = target: T33, Ac-PLG˜LL-Ahxh-Ac[C14] (not fully specified)
T33 chain: PLGLL

[21] = target: T34, Ac-PLG˜Ahp-OL-Ahxh-Ac[C14] (not fully specified)
T34 chain: PLGXXL

Ac-LRY˜Cha-TA-Ahxh-Hynic = target: T35, Ac-LRY˜Cha-TA-Ahxh-Hynic (not fully specified)
T35 chain: LRYXTA

Ac-PLG˜LYT-Ahxh-Hynic = target: T36, Ac-PLG˜LYT-Ahxh-Hynic (not fully specified)
T36 chain: PLGLYT

[22] = target: T37, Ac-PLG˜Hphe-R-Ahxh-Ac[C14] (not fully specified)
T37 chain: PLGXR

[23] = target: T38, Ac-P-Cit-G˜Abu-LA-Ahxh-Hynic (not fully specified)
T38 chain: PXGXLA

Ac-POG˜Hphe-L-Hynic = target: T39, Ac-POG˜Hphe-L-Hynic
T39 chain: PXGXL

Ac-PRQ˜IT-Ahxh-Hynic = target: T40, Ac-PRQ˜IT-Ahxh-Hynic
T40 chain: PRQIT

[24] = target: T41, NLys-PLG˜Hphe-YL-Ambh-Hynic
T41 chain: XPLGXYL

Ac-POG˜Hphe-L-Ambh-Hynic = target: T42, Ac-POG˜Hphe-L-Ambh-Hynic
T42 chain: PXGXL

[25] = target: T43, Ac-POG˜Hphe-LA-Ahxh-Hynic
T43 chain: PXGXLA

[26] = target: T44, Ac-P-Cit-G˜Hphe-Cha-A-Ahxh-Ac[C14] (not fully specified)
T44 chain: PXGXXA

[27] = target: T45, Ac-PLG˜Hphe-OLEE-Ahx-Hynic
T45 chain: PLGXXLEE

Suc-PLG˜LYT-Ahxh-Hynic = target: T46, Suc-PLG˜LYT-Ahxh-Hynic
T46 chain: PLGLYT

[28] = target: T47, Ac-POG˜Hphe-LQ-Ahxh-Hynic
T47 chain: PXGXLQ

Ac-PLG˜LR-Ahxh-Hynic = target: T48, Ac-PLG˜LR-Ahxh-Hynic (not fully specified)
T48 chain: PLGLR

[29] = target: T49, Ac-P-Cha-G˜Hphe-Cit-L-Ahxh-Ac[C14] (not fully specified)
T49 chain: PXGXXL

[30] = target: T50, Ac-P-Cha-G˜LL-Ahxh-Ac[C14] (not fully specified)
T50 chain: PXGLL

[31] = target: T51, Ac-P-Cit-G˜Aib-LA-Ahxh-Hynic (not fully specified)
T51 chain: PXGXLA

B1: MMP-2 (protein)
chain: APSPIIKFPGDVAPKTDKELAVQYLNTFYGCPKESCNLFVLKDTLKKMQKFFGLPQTGDLDQNTIETMRKPRCGNPDVANYNFFPRKPKWDKNQITYRIIGYTPDLDPETVDDAFARAFQVWSDVTPLRFSRIHDGEADIMINFGRWEHGDGYPFDGKDGLLAHAFAPGTGVGGDSHFDDDELWTLGEGQVVRVKYGNADGEYCKFPFLFNGKEYNSCTDTGRSDGFLWCSTTYNFEKDGKYGFCPHEALFTMGGNAEGQPCKFPFRFQGTSYDSCTTEGRTDGYRWCGTTEDYDRDKKYGFCPETAMSTVGGNSEGAPCVFPFTFLGNKYESCTSAGRSDGKMWCATTANYDDDRKWGFCPDQGYSLFLVAAHEFGHAMGLEHSQDPGALMAPIYTYTKNFRLSQDDIKGIQELYGASPDIDLGTGPTPTLGPVTPEICKQDIVFDGIAQIRGEIFFFKDRFIWRTVTPRDKPMGPLLVATFWPELPEKIDAVYEAPQEEKAVFFAGNEYWIYSASTLERGYPKPLTSLGLPPDVQRVDAAFNWSKNKKTYIFAGDKFWRYNEVKKKMDPGFPKLIADAWNAIPDNLDAVVDLQGGGHSYFFKGAYYLKLENQSLKSVKFGSIKSDWLGC
- Kcat/Km (Ac-PLG-LYV-Ahxh-Ac[C14]): 396000 M⁻¹ s⁻¹
- Kcat/Km (Ac-PLG˜LYQ-Ahxh-Ac[C14]): 439000 M⁻¹ s⁻¹
- Kcat/Km (Ac-PLG˜LWA-Ahxh-Ac[C14]): 712000 M⁻¹ s⁻¹
- Kcat/Km [1]: 130000 M⁻¹ s⁻¹
- Kcat/Km [2]: 293000 M⁻¹ s⁻¹
- Kcat/Km [3]: 0 M⁻¹ s⁻¹
- Kcat/Km (Ac-PLG˜LRL-Ahxh-Hynic): 182000 M⁻¹ s⁻¹
- Kcat/Km [4]: 91400 M⁻¹ s⁻¹
- Kcat/Km [5]: 165000 M⁻¹ s⁻¹
- Kcat/Km [6]: 359000 M⁻¹ s⁻¹
- Kcat/Km [7]: 63200 M⁻¹ s⁻¹
- Kcat/Km (Ac-VRW˜LLA-Ahxh-Hynic): 43000 M⁻¹ s⁻¹
- Kcat/Km [8]: 221000 M⁻¹ s⁻¹
- Kcat/Km [9]: 76300 M⁻¹ s⁻¹
- Kcat/Km [10]: > 500000 M⁻¹ s⁻¹
- Kcat/Km [11]: 55400 M⁻¹ s⁻¹
- Kcat/Km [12]: 351000 M⁻¹ s⁻¹
- Kcat/Km (Ac-PLG˜LYL-Ahxh-Hynic): 65300 M⁻¹ s⁻¹
- Kcat/Km [13]: 93000 M⁻¹ s⁻¹
- Kcat/Km [14]: 180000 M⁻¹ s⁻¹
- Kcat/Km (Ac-PRR˜Cha-TA-Ambh-Hynic): 0 M⁻¹ s⁻¹
- Kcat/Km [15]: 11600 M⁻¹ s⁻¹
- Kcat/Km (Ac-VRW˜LTA-Ahxh-Hynic): 14400 M⁻¹ s⁻¹
- Kcat/Km (Ac-PRG˜LLT-Ahxh-Hynic): 98600 M⁻¹ s⁻¹
- Kcat/Km [16]: 146000 M⁻¹ s⁻¹
- Kcat/Km (Ac-PLG˜LL-Ahxh-Hynic): > 250000 M⁻¹ s⁻¹
- Kcat/Km [17]: 16300 M⁻¹ s⁻¹
- Kcat/Km [18]: 119000 M⁻¹ s⁻¹
- Kcat/Km [19]: 46600 M⁻¹ s⁻¹
- Kcat/Km [20]: > 500000 M⁻¹ s⁻¹
- Kcat/Km (Ac-PLG˜LYT-Ahxh-Ac[C14]): 413000 M⁻¹ s⁻¹
- Kcat/Km (Ac-PHG˜Hphe-L-Ahxh-Hynic): 22100 M⁻¹ s⁻¹
- Kcat/Km (Ac-PLG˜LL-Ahxh-Ac[C14]): 148000 M⁻¹ s⁻¹
- Kcat/Km [21]: 4970 M⁻¹ s⁻¹
- Kcat/Km (Ac-LRY˜Cha-TA-Ahxh-Hynic): 0 M⁻¹ s⁻¹
- Kcat/Km (Ac-PLG˜LYT-Ahxh-Hynic): 186000 M⁻¹ s⁻¹
- Kcat/Km [22]: > 500000 M⁻¹ s⁻¹
- Kcat/Km [23]: 17600 M⁻¹ s⁻¹
- Kcat/Km (Ac-POG˜Hphe-L-Hynic): 63700 M⁻¹ s⁻¹
- Kcat/Km (Ac-PRQ˜IT-Ahxh-Hynic): 898 M⁻¹ s⁻¹
- Kcat/Km [24]: 121000 M⁻¹ s⁻¹
- Kcat/Km (Ac-POG˜Hphe-L-Ambh-Hynic): 77700 M⁻¹ s⁻¹
- Kcat/Km [25]: > 500000 M⁻¹ s⁻¹
- Kcat/Km [26]: > 500000 M⁻¹ s⁻¹
- Kcat/Km [27]: 8020 M⁻¹ s⁻¹
- Kcat/Km (Suc-PLG˜LYT-Ahxh-Hynic): 141000 M⁻¹ s⁻¹
- Kcat/Km [28]: > 250000 M⁻¹ s⁻¹
- Kcat/Km (Ac-PLG˜LR-Ahxh-Hynic): 162000 M⁻¹ s⁻¹
- Kcat/Km [29]: 22600 M⁻¹ s⁻¹
- Kcat/Km [30]: 24700 M⁻¹ s⁻¹
- Kcat/Km [31]: 0 M⁻¹ s⁻¹
